Results reported in article PMC4529235.

B1: ASIC1a-ΔCCt (H8-hASIC1a-C466A/C471A/C497A/C528Stop) [human] / itself (parent)
chain: MELKAEEEEVGGVQPVSIQAFASSSTLHGLAHIFSYERLSLKRALWALCFLGSLAVLLCVCTERVQYYFHYHHVTKLDEVAASQLTFPAVTLCNLNEFRFSQVSKNDLYHAGELLALLNNRYEIPDTQMADEKQLEILQDKANFRSFKPKPFNMREFYDRAGHDIRDMLLSCHFRGEVCSAEDFKVVFTRYGKCYTFNSGRDGRPRLKTMKGGTGNGLEIMLDIQQDEYLPVWGETDETSFEAGIKVQIHSQDEPPFIDQLGFGVAPGFQTFVACQEQRLIYLPPPWGTCKAVTMDSDLDFFDSYSITACRIDCETRYLVENCNCRMVHMPGDAPYCTPEQYKECADPALDFLVEKDQEYCVCEMPCNLTRYGKELSMVKIPSKASAKYLAKKFNKSEQYIGENILVLDIFFEVLNYETIEQKKAYEIAGLLGDIGGQMGLFIGASILTVLELFDYAYEVIKHKLARRGKAQKEAKRSSADKGVALSLDDVKRHNPAESLRGHPAGMTYAANILPHHPARGTFEDFT

Variants of: B1
Experiment: BMOE crosslinking at the cell surface, SDS-PAGE under reducing conditions, anti-His-tag western blotting, band densitometry
Conditions: with itself; mean ±SEM, n = 4; read off a plot

Variant | relative band intensity (densitometry)
MELKAEEEEVGGVQPVSIQAFASSSTLHGLAHIFSYERLSLKRALWALCFLGSLAVLLVVCTERVQYYFHYHHVTKLDEVAASQLTFPAVTLCNLNEFRFSQVSKNDLYHAGELLALLNNRYEIPDTQMADEKQLEILQDKANFRSFKPKPFNMREFYDRAGHDIRDMLLSCHFRGEVCSAEDFKVVFTRYGKCYTFNSGRDGRPRLKTMKGGTGNGLEIMLDIQQDEYLPVWGETDETSFEAGIKVQIHSQDEPPFIDQLGFGVAPGFQTFVACQEQRLIYLPPPWGTCKAVTMDSDLDFFDSYSITACRIDCETRYLVENCNCRMVHMPGDAPYCTPEQYKECADPALDFLVEKDQEYCVCEMPCNLTRYGKELSMVKIPSKASAKYLAKKFNKSEQYIGENILVLDIFFEVLNYETIEQKKAYEIAGLLCDIGGQMGLFIGASILTVLELFDYAYEVIKHKLARRGKAQKEAKRSSADKGVALSLDDVKRHNPAESLRGHPAGMTYAANILPHHPARGTFEDFT [chain 1 G433C C59V] | 0.22
MELKAEEEEVGGVQPVSIQAFASSSTLHGLAHIFSYERLSLKRALWALCFLGSLAVLLVVSTERVQYYFHYHHVTKLDEVAASQLTFPAVTLCNLNEFRFSQVSKNDLYHAGELLALLNNRYEIPDTQMADEKQLEILQDKANFRSFKPKPFNMREFYDRAGHDIRDMLLSCHFRGEVCSAEDFKVVFTRYGKCYTFNSGRDGRPRLKTMKGGTGNGLEIMLDIQQDEYLPVWGETDETSFEAGIKVQIHSQDEPPFIDQLGFGVAPGFQTFVACQEQRLIYLPPPWGTCKAVTMDSDLDFFDSYSITACRIDCETRYLVENCNCRMVHMPGDAPYCTPEQYKECADPALDFLVEKDQEYCVCEMPCNLTRYGKELSMVKIPSKASAKYLAKKFNKSEQYIGENILVLDIFFEVLNYETIEQKKAYEIAGLLCDIGGQMGLFIGASILTVLELFDYAYEVIKHKLARRGKAQKEAKRSSADKGVALSLDDVKRHNPAESLRGHPAGMTYAANILPHHPARGTFEDFT [chain 1 G433C C59V C61S] | 0.18
